Results taken from patent US20020086844A1 (Harvard, published 2002).

B1: hTid-1L (other)
chain: VSLTGTKHNPFICTASFHTSAPLAKEDYYQILGVPRNASQKEIKKAYYQLAKKYHPDTNKDDPKAKEKFSQLAEAYEVLSDEVKRKQYDAYGSAGFDPGASGSQHSYWKGGPTVDPEELFRKIFGEFSSSSFGDFQTVFDQPQEYFMELTFNQAAKGVNKEFTVNIMDTCERCNGKGNEPGTKVQHCHYCGGSGMETINTGPFVMRSTCRRCGGRGSIIISPCVVCRGAGQAKQKKRVMIPVPAGVEDGQTVRMPVGKREIFITFRVQKSPVFRRDGADIHSDLFISIAQALLGGTARAQGLYETINVTIPPGTQTDQKIRMGGKGIPRINSYGYGDHYIHIKIRVPKRLTSRQQSLILSYAEDETDVEGTVNGVTLTSSGGSTMDSSAGSKARREAGEDEEGFLSKLKKMFTS
notes: Endogenous protein from human cell lysates; also called long form of human Tid1; 43 kDa TID1 splice variant
B2: hTid-1S (other)
chain: VSLTGTKHNPFICTASFHTSAPLAKEDYYQILGVPRNASQKEIKKAYYQLAKKYHPDTNKDDPKAKEKFSQLAEAYEVLSDEVKRKQYDAYGSAGFDPGASGSQHSYWKGGPTVDPEELFRKIFGEFSSSSFGDFQTVFDQPQEYFMELTFNQAAKGVNKEFTVNIMDTCERCNGKGNEPGTKVQHCHYCGGSGMETINTGPFVMRSTCRRCGGRGSIIISPCVVCRGAGQAKQKKRVMIPVPAGVEDGQTVRMPVGKREIFITFRVQKSPVFRRDGADIHSDLFISIAQALLGGTARAQGLYETINVTIPPGTQTDQKIRMGGKGIPRINSYGYGDHYIHIKIRVPKRLTSRQQSLILSYAEDETDVEGTVNGVTLTSSGKRSTGN
notes: Endogenous protein from human cell lysates; also called short form of human Tid1; 40 kDa TID1 splice variant

Molecular target: T1, constitutively expressed nonmitochondrial Hsp70 homolog Hsc70 (human, UniProt P11142 2-646)
T1 construct: Endogenous; used as the control in the co-immunoprecipitation
Assay: co-immunoprecipitation with hTid-1-specific mAbs, immunoblot for Hsc70
Procedure: FIG. 2C. Endogenous hTid-1L and hTid-1S coimmunoprecipitate with mtHsp70. Immunoprecipitation experiments were performed from U20S cells by using mAbs specific for either hTid-1, mtHsp70, or Hsc70. Immune complexes were analyzed by SDS/PAGE and Western blot with hTid-1-, mtHsp70-, or Hsc70-specific mAbs.
Because hTid-1 proteins have extremely well conserved J domains, we suspected that they may be interacting with the mitochondrial Hsp70 homolog, mtHsp70 (GRP75), which is also localized to the mitochondrial matrix. We performed coimmunoprecipitation-immunoblot experiments by using mAbs specific for hTid-1, mtHsp70, or the constitutively expressed nonmitochondrial Hsp70 homolog Hsc70 as a control. hTid-1-specific mAbs immunoprecipitate endogenous hTid-1L and hTid-1S in complex with mtHsp70 from human U2OS cells. (FIG. 2C).

T1 sequence (P11142 2-646 limits assumed): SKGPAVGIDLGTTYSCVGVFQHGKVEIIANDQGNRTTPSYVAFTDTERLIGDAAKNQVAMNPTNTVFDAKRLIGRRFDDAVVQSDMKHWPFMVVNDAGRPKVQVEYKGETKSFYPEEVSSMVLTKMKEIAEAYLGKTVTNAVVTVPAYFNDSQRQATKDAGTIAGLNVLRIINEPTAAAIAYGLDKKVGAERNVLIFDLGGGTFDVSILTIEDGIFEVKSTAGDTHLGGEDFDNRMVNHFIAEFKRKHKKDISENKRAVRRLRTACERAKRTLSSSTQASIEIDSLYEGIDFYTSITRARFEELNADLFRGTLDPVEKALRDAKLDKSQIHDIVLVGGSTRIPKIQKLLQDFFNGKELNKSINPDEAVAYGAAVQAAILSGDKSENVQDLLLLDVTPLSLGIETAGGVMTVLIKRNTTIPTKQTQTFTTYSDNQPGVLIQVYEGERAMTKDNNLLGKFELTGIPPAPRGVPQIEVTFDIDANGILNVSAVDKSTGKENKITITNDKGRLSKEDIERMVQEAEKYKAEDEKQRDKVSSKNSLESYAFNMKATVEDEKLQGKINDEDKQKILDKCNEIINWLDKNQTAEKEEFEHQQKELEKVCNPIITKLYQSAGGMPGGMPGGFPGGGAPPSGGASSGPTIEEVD

Row | Binder | binding result
1 | B1 | no binding
2 | B2 | no binding
